Measurements published in patent US20240084017A1 (ASCENDO BIOTECHNOLOGY, published 2024).

Assays:
[1] = target: T1, human Mac-1 (integrin αMβ2, CD11b/CD18) (human, UniProt P11215 17-1152; P05107 23-769); assay: flow cytometry, HEK293/Mac-1 cells, PBS/MnCl2 (Mn2+), 10 µg/ml of this antibody; binding of reporter mAb m24 read
Procedure: (§1) The HEK293/Mac-1 cells (clone1-4) were counted and washed twice with staining buffer (PBS containing 1% FBS, and 0.1% sodium azide). Cells were adjusted at a concentration of 1×10⁵ cells/ml in staining buffer and treated with/without 0.25 mM MnCl₂ (Sigma). Cells were treated with anti-Mac-1 antibodies and fluorescent conjugated anti-human IgG4 antibodies and incubated for 15 mins. After washing with the staining buffer, the cells were analyzed by flow cytometry. In some examples, these cells were treated with the antibodies (ICRF44, KIM127, m24, or isotype control) in the presence or absence 10 μg/ml anti-Mac-1 antibodies. The cells were then incubated at 37° C. for 30 min. After washing with the staining buffer, the cells were analyzed by flow cytometry.
(§2) TABLE IV The anti-Mac-1 antibody can serve as an antagonist to reduce the conformational change of Mac-1. HEK293/Mac-1 cells (clone1-4) were incubated with 10 μg/ml anti-Mac-1 antibodies under the PBS/MnCl₂ (Mn²⁺) condition. Binding of KIM127 or m24 was detected using flow cytometry.

[2] = target: T2, mouse Mac-1 (mouse, UniProt P05555 17-1153; P11835 24-771); assay: flow cytometry, Raw 264.7 cells
T2 construct: whole, on cells; also called Raw264.7

[3] = target: T1, human Mac-1 (integrin αMβ2, CD11b/CD18); assay: flow cytometry, HEK293/Mac-1 cells, PBS/MnCl2 (Mn2+), 10 µg/ml of this antibody; binding of reporter mAb KIM127 read
Procedure: as §1, §2

[4] = target: T1, human Mac-1 (integrin αMβ2, CD11b/CD18); assay: flow cytometry, HEK293/Mac-1 cells, PBS (Mock), 10 µg/ml of this antibody; binding of reporter mAb m24 read
Procedure: as §1
(§3) TABLE III The anti-Mac-1 antibodies can serve as agonist to enhance the conformational change of Mac-1. HEK293/Mac-1 cells (clone1-4) were incubated with 10 μg/ml anti-Mac-1 antibodies under the PBS (Mock) condition. Binding of KIM127 or m24 was detected using flow cytometry.

[5] = target: T1, human Mac-1 (integrin αMβ2, CD11b/CD18); assay: flow cytometry, HEK293/Mac-1 cells; MFI in PBS over MFI in PBS/MnCl2
Procedure: as §1
(§4) TABLE II The anti-Mac-1 antibodies selectively bind to different statuses of human Mac-1. HEK293/Mac-1 cells (clone1-4) were incubated in PBS (Mock), or PBS/MnCl₂ (Mn²⁺). Binding of isotype control IgG, the CD11b specific mAb (ICRF44), the CD11b activation-sensing mAb (CBRM1/5), or the screened anti-Mac-1 antibody was detected using flow cytometry.

[6] = target: T1, human Mac-1 (integrin αMβ2, CD11b/CD18); assay: flow cytometry, HEK293/Mac-1 cells, PBS (Mock), 10 µg/ml of this antibody; binding of reporter mAb KIM127 read
Procedure: as §1, §3

[7] = target: T1, human Mac-1 (integrin αMβ2, CD11b/CD18); assay: flow cytometry, HEK293/Mac-1 cells (clone 1-4), PBS/MnCl2 (Mn2+)
Procedure: as §1, §4

[8] = target: T1, human Mac-1 (integrin αMβ2, CD11b/CD18); assay: flow cytometry, HEK293/Mac-1 cells (clone 1-4), PBS (Mock)
Procedure: as §1, §4

T2 sequence (P05555 17-1153, chain 1 of 2): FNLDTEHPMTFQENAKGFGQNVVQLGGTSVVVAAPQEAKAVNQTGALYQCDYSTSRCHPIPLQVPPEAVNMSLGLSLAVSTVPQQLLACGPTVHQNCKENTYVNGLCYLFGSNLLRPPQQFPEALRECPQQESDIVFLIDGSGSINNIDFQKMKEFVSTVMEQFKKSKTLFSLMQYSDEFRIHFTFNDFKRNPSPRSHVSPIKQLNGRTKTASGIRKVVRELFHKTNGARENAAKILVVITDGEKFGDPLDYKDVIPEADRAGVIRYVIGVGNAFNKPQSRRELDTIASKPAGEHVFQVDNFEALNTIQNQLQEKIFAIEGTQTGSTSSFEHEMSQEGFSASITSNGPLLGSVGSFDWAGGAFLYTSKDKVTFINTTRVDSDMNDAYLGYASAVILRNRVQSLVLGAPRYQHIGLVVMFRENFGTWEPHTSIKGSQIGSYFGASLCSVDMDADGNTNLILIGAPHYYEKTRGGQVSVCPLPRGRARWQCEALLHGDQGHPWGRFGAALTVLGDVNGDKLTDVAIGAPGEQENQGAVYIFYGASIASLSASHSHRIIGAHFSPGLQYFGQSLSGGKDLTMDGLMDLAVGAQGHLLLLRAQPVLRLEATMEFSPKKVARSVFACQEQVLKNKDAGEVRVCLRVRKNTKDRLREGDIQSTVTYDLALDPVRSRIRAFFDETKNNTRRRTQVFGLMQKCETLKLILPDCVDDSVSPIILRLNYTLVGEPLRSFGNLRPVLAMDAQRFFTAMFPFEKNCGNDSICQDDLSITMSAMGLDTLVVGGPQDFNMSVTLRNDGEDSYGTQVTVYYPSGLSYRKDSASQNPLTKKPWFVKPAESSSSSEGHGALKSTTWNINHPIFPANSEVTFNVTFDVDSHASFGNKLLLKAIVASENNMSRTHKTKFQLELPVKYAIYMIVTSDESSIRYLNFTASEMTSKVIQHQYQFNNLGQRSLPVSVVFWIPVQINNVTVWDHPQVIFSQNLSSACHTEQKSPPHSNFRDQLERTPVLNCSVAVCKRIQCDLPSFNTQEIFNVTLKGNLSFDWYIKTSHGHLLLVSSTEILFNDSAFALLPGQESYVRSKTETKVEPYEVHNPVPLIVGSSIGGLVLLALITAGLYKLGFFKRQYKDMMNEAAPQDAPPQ
T2 sequence (P11835 24-771, chain 2 of 2): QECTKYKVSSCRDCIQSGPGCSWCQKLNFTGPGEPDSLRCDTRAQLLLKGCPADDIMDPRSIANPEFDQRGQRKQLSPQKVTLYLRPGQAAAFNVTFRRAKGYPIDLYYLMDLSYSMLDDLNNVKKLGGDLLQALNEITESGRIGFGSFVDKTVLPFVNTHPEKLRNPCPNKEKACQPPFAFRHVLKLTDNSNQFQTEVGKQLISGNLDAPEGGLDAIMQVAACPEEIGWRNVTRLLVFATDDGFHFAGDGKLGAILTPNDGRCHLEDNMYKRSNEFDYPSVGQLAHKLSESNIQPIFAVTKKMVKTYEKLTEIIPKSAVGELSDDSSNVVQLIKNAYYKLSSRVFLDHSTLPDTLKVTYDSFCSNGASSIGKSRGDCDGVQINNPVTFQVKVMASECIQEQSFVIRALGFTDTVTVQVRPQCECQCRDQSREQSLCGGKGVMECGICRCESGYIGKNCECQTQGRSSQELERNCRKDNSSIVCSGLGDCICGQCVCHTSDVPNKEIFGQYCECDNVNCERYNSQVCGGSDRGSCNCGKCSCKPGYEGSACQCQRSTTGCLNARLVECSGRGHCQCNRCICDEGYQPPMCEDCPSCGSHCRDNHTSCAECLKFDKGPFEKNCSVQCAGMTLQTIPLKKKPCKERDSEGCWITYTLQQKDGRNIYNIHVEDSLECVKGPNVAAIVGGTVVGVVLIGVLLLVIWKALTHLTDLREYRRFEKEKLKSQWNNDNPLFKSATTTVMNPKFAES

| Binder | m24 (Expression relative to IgG4) [1] | binding result [2] | KIM127 (Expression relative to IgG4) [3] | m24 (Expression relative to IgG4) [4] | Mock/Mn^2+ Ratio [5] | KIM127 (Expression relative to IgG4) [6] | Mn^2+ MFI [7] | Mock MFI [8] |
| --- | --- | --- | --- | --- | --- | --- | --- | --- |
| anti-Mac-1 antibody clone 27E12 (antibody, human IgG4, V domains shown) VH: QVQLQQSGTVLARPGASVKMSCKASGYTFTSYWMHWVKQRPGQGLEWIGAIYPGNSDTSYNQKFKGKAKLTAVTSASTAYMELSSLTNEDSAVYYCTRGGGSYEFAYWGQGTTVTVSS VL: DIELTQSPAIMSASPGEKVTMTCSVSSSVSYMYWYQQKPGSSPRLLIYDTSNLASGVPARFSGSGSGTSYSLTISSMEAEDAATYYCQQWSSNPFTFGSGTKLEIK | 0.85 relative to IgG4 |  | 0.71 relative to IgG4 | 0.64 relative to IgG4 | 1.12 | 1 relative to IgG4 | 50800 MFI | 56800 MFI |
| anti-Mac-1 antibody clone 24G05 (antibody, human IgG4, V domains shown) VH: EVQLVESGGGLVQPGGSLRLSCAASGFTFTSYWMTWVRQAPGKGLEWVSTIVGGGGEADYADSVKGRFTISRDNSKNTLYLQMNSLRAEDTAVYYCARDYVADNHGAMDYWGQGTLVTVSS VL: DIQMTQSPSSLSASVGDRVTITCRASQGLSSYLNWYQQKPGKAPKLLIYGMSTLQSGVPSRFSGSGSGTDFTLTISSLQPEDFATYYCMQYYHWPYTFGQGTKVEIK | 3.85 relative to IgG4 |  | 1.64 relative to IgG4 | 25 relative to IgG4 | 1.25 | 2.22 relative to IgG4 | 44800 MFI | 55900 MFI |
| anti-Mac-1 antibody clone 24F08 (antibody, human IgG4, V domains shown) VH: EVQLVESGGGLVQPGGSLRLSCAASGFTFSSYWMSWVRQAPGKGLEWVSIINYSGREADYADSVKGRFTISRDNSKNTLYLQMNSLRAEDTAVYYCARDGSYVGQAHEAFDIWGQGTLVTVSS VL: DIQMTQSPSSLSASVGDRVTITCRASQSISKYLAWYQQKPGKAPKLLIYGTSNLQSGVPSRFSGSGSGTDFTLTISSLQPEDFATYYCQQSRSWPLTFGQGTKVEIK | 4.01 relative to IgG4 |  | 1.73 relative to IgG4 | 21.2 relative to IgG4 | 1.19 | 2.17 relative to IgG4 | 42100 MFI | 50000 MFI |
| anti-Mac-1 antibody clone 24F09 (antibody, human IgG4, V domains shown, also called 24F9) VH: EVQLVESGGGLVQPGGSLRLSCAASGFTFSSAWMSWVRQAPGKGLEWVSTIYWSGSEINYADSVKGRFTISRDNSKNTLYLQMNSLRAEDTAVYYCARSFASGESAMDVWGQGTLVTVSS VL: DIQMTQSPSSLSASVGDRVTITCRASQSISNYLAWYQQKPGKAPKLLIYDASNLQSGVPSRFSGSGSGTDFTLTISSLQPEDFATYYCQQYYSSPPTFGQGTKVEIK | 4.01 relative to IgG4 |  | 1.71 relative to IgG4 | 19.1 relative to IgG4 | 1.17 | 2.05 relative to IgG4 | 33900 MFI | 39800 MFI |

Further lines, results first:

| m24 (Expression relative to IgG4) [1] | binding result [2] | KIM127 (Expression relative to IgG4) [3] | m24 (Expression relative to IgG4) [4] | Mock/Mn^2+ Ratio [5] | KIM127 (Expression relative to IgG4) [6] | Mn^2+ MFI [7] | Mock MFI [8] | Binder |
| --- | --- | --- | --- | --- | --- | --- | --- | --- |
| 4.4 relative to IgG4 | binds | 1.68 relative to IgG4 | 28.4 relative to IgG4 | 0.66 | 2.49 relative to IgG4 | 52500 MFI | 34600 MFI | anti-Mac-1 antibody clone DF3M-5 (antibody, human IgG4, V domains shown) VH: EVQLVESGGGLVQPGGSLRLSCAASGFTFGTYDMHWVRQAPGKGLEWVSMISPSGGDTYYADSVKGRFTISRDNSKNTLYLQMNSLRAEDTAVYYCARDSSGDWYAMAYWGQGTLVTVSS VL: DIQMTQSPSSLSASVGDRVTITCRASQSIRRYLAWYQQKPGKAPKLLIYGASNLQSGVPSRFSGSGSGTDFTLTISSLQPEDFATYYCQHSSDTPLTFGQGTKVEIK |
| 0.83 relative to IgG4 | binds | 0.81 relative to IgG4 | 0.88 relative to IgG4 | 1.01 | 1.09 relative to IgG4 | 107000 MFI | 108000 MFI | anti-Mac-1 antibody clone m2396 (antibody, human IgG4, V domains shown) VH: QVQLQESGPGLVKPSETLSLTCTVSGFSLTSNSISWVRQPPGKGLEWMGAIWSGGGTDYNPSLKSRLTISRDTSKSQVFLKMSSLTAADTAIYFCTRGGYPYYFDYWGQGVLVTVSS VL: DIVMTQSPDSLAVSLGERVTINCKSSQSLLYSENQENYLAWYQQKPGQSPKLLIYWASTRQSGVPDRFSGSGSGTDFTLTISSVQAEDLAIYYCQQYYDTPLTFGGGTKLEIK |
| 0.62 relative to IgG4 |  | 0.69 relative to IgG4 | 0.65 relative to IgG4 | 1.69 | 0.99 relative to IgG4 | 30600 MFI | 51800 MFI | anti-Mac-1 antibody clone 28D06 (antibody, human IgG4, V domains shown) VH: QVKLQQSGPELVKPGASVKISCKASGYSFTDYNMNWVKQSNGKSLEWIGEINPNYGTTRYNQKFKGKATLTVDQSSSTAYMQLNSLTSEDSAVYYCARPSIYYDYDDAMDYWGQGTTVTVSS VL: DIELTQSPAIMSASPGEKVTMTCSASSSVNYMYWYQQKPGSSPRLLIYDTSNLASGVPVRFSGSGSGTSYSLTISRMEAEDAATYYCQQWITYPPTLTFGAGTKLEIK |
| 0.23 relative to IgG4 |  | 0.63 relative to IgG4 | 0.44 relative to IgG4 | 0.91 | 1.11 relative to IgG4 | 45700 MFI | 41600 MFI | anti-Mac-1 antibody clone H4L2 (antibody, human IgG4, V domains shown) VH: QVQLVQSGAEVKKPGASVKVSCKASGYTFTNYWINWVRQAPGQRLEWMGNIYPSDTYINHNQKFKDRVTITRDTSASTAYMELSSLRSEDTAVYYCARSAYANYFDYWGQGTLVTVSS VL: EIVMTQSPATLSVSPGERATLSCRASQNIGTSIHWYQQKPGQAPRLLIYYASESISGIPARFSGSGSGTEFTLTISSLQSEDFAVYYCQQSDSWPTLTFGQGTKLEIK |
| 4.34 relative to IgG4 |  | 1.75 relative to IgG4 | 24 relative to IgG4 | 1.17 | 2.23 relative to IgG4 | 30500 MFI | 35700 MFI | anti-Mac-1 antibody clone DF4-25 (antibody, human IgG4, V domains shown) VH: EVQLVESGGGLVQPGGSLRLSCAASGFTFKDYWLSWVRQAPGKGLEWVSIINYGGSETYYADSVKGRFTISRDNSKNTLYLQMNSLRAEDTAVYYCARTQTSYVMDYWGQGTLVTVSS VL: DIQMTQSPSSLSASVGDRVTITCRASQSVRSGLNWYQQKPGKAPKLLIYAASSLQSGVPRRFSGSGSGTDFTLTISSLQPEDFATYYCMQSHSWPLTFGQGTKVEIK |
